Data reported in patent JP2023014062A (dated 2023).

Assays:
[1] = target: T1, B.1.1.7変異株(アルファ株又は英国株)のSタンパク質のRBDタンパク質 (SARS-CoV-2 B.1.1.7変異株, UniProt P0DTC2 322-536); assay: ELISA, RBD coated at 2 μg/ml, Expi293 culture supernatant, HRP anti-human IgG
T1 construct: range 322-536

[2] = target: T2, B.1.351変異株(ベータ株又は南ア株)のSタンパク質のRBDタンパク質 (SARS-CoV-2 B.1.351変異株, UniProt P0DTC2 322-536); assay: as above
T2 construct: range 322-536

B1: 抗体NCV2SG53 (antibody, V domains shown)
VH: QVQMVESGGGLVRPGGSLRLSCAASGFTFSDYYMSWIRQAPGKGLEWISYISSSGSSMNYADSVKGRFTISRDNAKNSLFLQMNSLRAEDTAVYYCAREFDLTKIIMVPPYWGQGTLVTVSS
VL: AIQLTQSPSSLSASVGDRVTITCRASQGISSYLAWYQQKPGKAPKVLIYAASTLQSGVPSRFSGSGSGTDFTLTISSLQPEDFATYYCQQLKSYPLTFGGGTKVEIT
binding result [1]: binds
binding result [2]: binds
